Measured values reported in patent publication CN112521508A (BEIJING GUANGWEI BIOTECHNOLOGY CO LTD, dated 2021).

T1: 人CD20蛋白 (human CD20) (human, UniProt P11836 1-297, limits assumed)
T1 construct: its title names human CD20; also called 抗原
T1 sequence (looked up): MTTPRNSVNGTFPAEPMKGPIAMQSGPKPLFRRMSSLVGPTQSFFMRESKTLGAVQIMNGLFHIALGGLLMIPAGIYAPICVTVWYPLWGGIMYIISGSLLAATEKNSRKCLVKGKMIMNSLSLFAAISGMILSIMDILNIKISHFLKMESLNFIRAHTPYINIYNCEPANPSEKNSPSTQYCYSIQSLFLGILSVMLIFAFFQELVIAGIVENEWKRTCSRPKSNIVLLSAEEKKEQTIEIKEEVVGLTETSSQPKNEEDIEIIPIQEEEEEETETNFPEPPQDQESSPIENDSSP

B1: hG7B2-IgG1 (antibody, V domains shown)
VH: QVQLVQSGGEVKKPGASVKVSCKTSGYRFTSGKNAVWVRQAPGQGLEWMGGIATGKFNLSVDLQGRLTLTTDTSTSTAYMELGSLRPDDTAVYYCTRDIRLYAGDYWGQGTLVTVSS
VL: DIVLTQPASVSGSPGQSVTISCSAIDGNCFNKVSWYQQHPGKAPKLMIYDASKRCTGIPERFSGSNSGNTATLTISRVEAGDEADYYCQAASKDAPITTFGRGTKLTVL
B2: Rituximab (antibody, V domains shown)
VH: QVQLQQPGAELVKPGASVKMSCKASGYTFTSYNMHWVKQTPGRGLEWIGAIYPGNGDTSYNQKFKGKATLTADKSSSTAYMQLSSLTSEDSAVYYCARSTYYGGDWYFNVWGAGTTVTVSA
VL: QIVLSQSPAILSASPGEKVTMTCRASSSVSYIHWFQQKPGSSPKPWIYATSNLASGVPVRFSGSGSGTSYSLTISRVEAEDAATYYCQQWTSNPPTFGGGTKLEIK

Target: T1, 人CD20蛋白 (human CD20)
Experiment: SPR (CM5 chip), antibody captured by anti-human capture antibody, antigen as analyte

Binder	Kd [nM]	koff [s⁻¹]	kon [M⁻¹ s⁻¹]
B1	0.215	5.31e-05	246000
B2	5.46	0.000345	63100
